{"source": "the Human Domainome abundance scans (Beltran et al. 2025)", "parents": {"B1": {"name": "Endonuclease CUE2, residues 9 to 47; numbered along this chain, P36075 (parent)", "chain": "HESKLSILMDMFPAISKSKLQVHLLENNNDLDLTIGLLL"}, "B2": {"name": "Telomeric repeat-binding factor 2, residues 489 to 542; numbered along this chain, Q15554 (parent)", "chain": "KQKWTVEESEWVKAGVQKYGEGNWAAISKNYPFVNRTAVMIKDRWRTMKRLGMN"}}, "note": "± gives the uncertainty stated by the source.", "data": [{"variants_of": "B1", "test": "abundance fitness (aPCA) (normalised: wild type 0, dead -1); higher = more abundant; growth selection in yeast, the domain comes from the species named", "conditions": "Saccharomyces cerevisiae (strain ATCC 204508 / S288c)", "values": [{"variant": "GESKLSILMDMFPAISKSKLQVHLLENNNDLDLTIGLLL", "abundance fitness": "0.237 ± 0.037"}, {"variant": "AESKLSILMDMFPAISKSKLQVHLLENNNDLDLTIGLLL", "abundance fitness": "0.264 ± 0.093"}, {"variant": "CESKLSILMDMFPAISKSKLQVHLLENNNDLDLTIGLLL", "abundance fitness": "0.351 ± 0.12"}, {"variant": "DESKLSILMDMFPAISKSKLQVHLLENNNDLDLTIGLLL", "abundance fitness": "0.064 ± 0.36"}, {"variant": "EESKLSILMDMFPAISKSKLQVHLLENNNDLDLTIGLLL", "abundance fitness": "0.361 ± 0.043"}]}, {"variants_of": "B2", "test": "abundance fitness (aPCA) (normalised: wild type 0, dead -1); higher = more abundant; growth selection in yeast, the domain comes from the species named", "conditions": "Homo sapiens", "values": [{"variant": "R50A", "abundance fitness": "0.007 ± 0.052"}, {"variant": "R50W", "abundance fitness": "-0.253 ± 0.14"}, {"variant": "R50N", "abundance fitness": "-0.054 ± 0.12"}, {"variant": "R50E", "abundance fitness": "0.052 ± 0.099"}, {"variant": "R50T", "abundance fitness": "-0.016 ± 0.046"}, {"variant": "R50V", "abundance fitness": "-0.07 ± 0.074"}, {"variant": "R50H", "abundance fitness": "-0.553 ± 0.21"}, {"variant": "R50Y", "abundance fitness": "-0.456 ± 0.17"}, {"variant": "R50M", "abundance fitness": "0.007 ± 0.16"}, {"variant": "R50K", "abundance fitness": "0.178 ± 0.11"}, {"variant": "R50Q", "abundance fitness": "-0.026 ± 0.043"}, {"variant": "R50L", "abundance fitness": "-0.252 ± 0.084"}, {"variant": "R50F", "abundance fitness": "0.076 ± 0.094"}, {"variant": "R50I", "abundance fitness": "0.286 ± 0.09"}, {"variant": "R50P", "abundance fitness": "-0.176 ± 0.11"}, {"variant": "R50S", "abundance fitness": "0.068 ± 0.056"}, {"variant": "V39N", "abundance fitness": "0.253 ± 0.089"}, {"variant": "V39L", "abundance fitness": "-0.154 ± 0.055"}, {"variant": "V39S", "abundance fitness": "0.057 ± 0.049"}, {"variant": "V39P", "abundance fitness": "0.059 ± 0.12"}, {"variant": "V39Q", "abundance fitness": "0.001 ± 0.087"}, {"variant": "V39A", "abundance fitness": "0.091 ± 0.087"}, {"variant": "V39T", "abundance fitness": "0.135 ± 0.06"}, {"variant": "V39G", "abundance fitness": "-0.005 ± 0.054"}, {"variant": "V39C", "abundance fitness": "0.203 ± 0.086"}, {"variant": "V39E", "abundance fitness": "0.008 ± 0.07"}, {"variant": "V39H", "abundance fitness": "-0.442 ± 0.23"}, {"variant": "V39Y", "abundance fitness": "-0.015 ± 0.11"}, {"variant": "V39R", "abundance fitness": "0.032 ± 0.061"}, {"variant": "V39I", "abundance fitness": "-0.075 ± 0.13"}, {"variant": "V39F", "abundance fitness": "-0.274 ± 0.08"}, {"variant": "V39M", "abundance fitness": "0.1 ± 0.1"}, {"variant": "M53H", "abundance fitness": "-0.249 ± 0.3"}, {"variant": "M53A", "abundance fitness": "-0.134 ± 0.068"}, {"variant": "M53P", "abundance fitness": "-0.147 ± 0.15"}, {"variant": "M53Y", "abundance fitness": "-0.686 ± 0.31"}, {"variant": "M53K", "abundance fitness": "-0.269 ± 0.19"}, {"variant": "M53W", "abundance fitness": "-0.329 ± 0.088"}, {"variant": "M53G", "abundance fitness": "-0.007 ± 0.058"}, {"variant": "M53T", "abundance fitness": "-0.249 ± 0.16"}, {"variant": "M53R", "abundance fitness": "-0.311 ± 0.072"}, {"variant": "M53L", "abundance fitness": "0.026 ± 0.079"}, {"variant": "M53Q", "abundance fitness": "-0.099 ± 0.099"}, {"variant": "M53S", "abundance fitness": "-0.145 ± 0.1"}, {"variant": "M53V", "abundance fitness": "-0.184 ± 0.07"}, {"variant": "M53I", "abundance fitness": "-0.141 ± 0.12"}, {"variant": "M53E", "abundance fitness": "0.01 ± 0.095"}, {"variant": "M53D", "abundance fitness": "0.349 ± 0.093"}, {"variant": "R44S", "abundance fitness": "-0.508 ± 0.045"}, {"variant": "R44N", "abundance fitness": "-0.662 ± 0.067"}, {"variant": "R44L", "abundance fitness": "-0.22 ± 0.04"}, {"variant": "R44F", "abundance fitness": "-0.185 ± 0.048"}, {"variant": "R44K", "abundance fitness": "-0.124 ± 0.049"}, {"variant": "R44W", "abundance fitness": "-0.397 ± 0.084"}, {"variant": "R44E", "abundance fitness": "-0.59 ± 0.093"}, {"variant": "R44D", "abundance fitness": "-1.03 ± 0.19"}, {"variant": "R44M", "abundance fitness": "-0.234 ± 0.076"}, {"variant": "R44P", "abundance fitness": "-0.863 ± 0.08"}, {"variant": "R44A", "abundance fitness": "-0.236 ± 0.048"}, {"variant": "R44Y", "abundance fitness": "-0.218 ± 0.062"}, {"variant": "R44G", "abundance fitness": "-0.466 ± 0.058"}, {"variant": "R44Q", "abundance fitness": "-0.079 ± 0.051"}, {"variant": "R44I", "abundance fitness": "-0.498 ± 0.081"}, {"variant": "R44H", "abundance fitness": "0.125 ± 0.045"}, {"variant": "R44C", "abundance fitness": "-0.214 ± 0.054"}, {"variant": "R44V", "abundance fitness": "-0.325 ± 0.055"}, {"variant": "N54G", "abundance fitness": "0.344 ± 0.14"}, {"variant": "N54W", "abundance fitness": "-0.166 ± 0.077"}, {"variant": "N54T", "abundance fitness": "0.544 ± 0.12"}, {"variant": "N54I", "abundance fitness": "-0.032 ± 0.12"}, {"variant": "N54F", "abundance fitness": "-0.537 ± 0.28"}, {"variant": "N54D", "abundance fitness": "-0.038 ± 0.22"}, {"variant": "N54A", "abundance fitness": "0.246 ± 0.11"}, {"variant": "N54H", "abundance fitness": "0.092 ± 0.37"}, {"variant": "N54S", "abundance fitness": "-0.051 ± 0.13"}, {"variant": "N54V", "abundance fitness": "-0.075 ± 0.092"}, {"variant": "N54Y", "abundance fitness": "-0.399 ± 0.16"}, {"variant": "M40Y", "abundance fitness": "-0.869 ± 0.39"}, {"variant": "M40G", "abundance fitness": "-0.406 ± 0.061"}, {"variant": "M40H", "abundance fitness": "-0.119 ± 0.23"}, {"variant": "M40E", "abundance fitness": "0.17 ± 0.086"}, {"variant": "M40P", "abundance fitness": "-0.935 ± 0.1"}, {"variant": "M40D", "abundance fitness": "0.106 ± 0.057"}, {"variant": "M40F", "abundance fitness": "0.11 ± 0.12"}, {"variant": "M40K", "abundance fitness": "-0.377 ± 0.13"}, {"variant": "M40L", "abundance fitness": "-0.508 ± 0.057"}, {"variant": "M40W", "abundance fitness": "0.066 ± 0.071"}, {"variant": "M40T", "abundance fitness": "-0.52 ± 0.058"}, {"variant": "M40C", "abundance fitness": "0.169 ± 0.095"}, {"variant": "M40A", "abundance fitness": "-0.015 ± 0.058"}, {"variant": "M40S", "abundance fitness": "-0.051 ± 0.077"}, {"variant": "M40R", "abundance fitness": "-0.663 ± 0.07"}, {"variant": "M40N", "abundance fitness": "-0.53 ± 0.18"}, {"variant": "K42E", "abundance fitness": "-0.016 ± 0.081"}, {"variant": "K42M", "abundance fitness": "-0.207 ± 0.057"}, {"variant": "K42A", "abundance fitness": "-0.141 ± 0.065"}, {"variant": "K42R", "abundance fitness": "0.035 ± 0.041"}, {"variant": "K42D", "abundance fitness": "-0.457 ± 0.23"}, {"variant": "K42H", "abundance fitness": "-0.881 ± 0.42"}, {"variant": "K42L", "abundance fitness": "-0.571 ± 0.071"}, {"variant": "K42N", "abundance fitness": "-0.417 ± 0.18"}, {"variant": "K42P", "abundance fitness": "-0.961 ± 0.19"}, {"variant": "K42V", "abundance fitness": "-0.77 ± 0.082"}, {"variant": "K42C", "abundance fitness": "-0.124 ± 0.12"}, {"variant": "K42W", "abundance fitness": "-0.653 ± 0.13"}, {"variant": "K42G", "abundance fitness": "-0.309 ± 0.069"}, {"variant": "K42S", "abundance fitness": "-0.16 ± 0.076"}, {"variant": "K42F", "abundance fitness": "-0.544 ± 0.27"}, {"variant": "K42T", "abundance fitness": "-0.614 ± 0.18"}, {"variant": "K42Y", "abundance fitness": "-0.448 ± 0.2"}, {"variant": "D43F", "abundance fitness": "-0.68 ± 0.17"}, {"variant": "D43W", "abundance fitness": "-0.502 ± 0.073"}, {"variant": "D43S", "abundance fitness": "-0.204 ± 0.078"}, {"variant": "D43R", "abundance fitness": "-0.072 ± 0.074"}, {"variant": "D43G", "abundance fitness": "-0.672 ± 0.097"}, {"variant": "D43C", "abundance fitness": "-0.449 ± 0.091"}, {"variant": "D43Y", "abundance fitness": "-0.364 ± 0.12"}, {"variant": "D43E", "abundance fitness": "-0.046 ± 0.056"}, {"variant": "D43P", "abundance fitness": "-0.942 ± 0.27"}, {"variant": "D43Q", "abundance fitness": "-0.07 ± 0.11"}, {"variant": "D43K", "abundance fitness": "0.011 ± 0.11"}, {"variant": "D43M", "abundance fitness": "-0.368 ± 0.083"}, {"variant": "D43I", "abundance fitness": "-0.866 ± 0.24"}, {"variant": "D43N", "abundance fitness": "-0.061 ± 0.1"}, {"variant": "K49C", "abundance fitness": "0.116 ± 0.086"}, {"variant": "K49G", "abundance fitness": "-0.568 ± 0.073"}, {"variant": "K49W", "abundance fitness": "-0.334 ± 0.22"}, {"variant": "K49D", "abundance fitness": "-0.507 ± 0.14"}, {"variant": "K49S", "abundance fitness": "-0.286 ± 0.056"}, {"variant": "K49N", "abundance fitness": "-0.597 ± 0.16"}, {"variant": "K49A", "abundance fitness": "-0.29 ± 0.046"}, {"variant": "K49I", "abundance fitness": "-0.415 ± 0.16"}, {"variant": "K49L", "abundance fitness": "-0.302 ± 0.045"}, {"variant": "K49F", "abundance fitness": "-0.535 ± 0.14"}, {"variant": "K49Q", "abundance fitness": "-0.054 ± 0.16"}, {"variant": "K49M", "abundance fitness": "-0.657 ± 0.19"}, {"variant": "K49R", "abundance fitness": "-0.358 ± 0.043"}, {"variant": "K49T", "abundance fitness": "-0.142 ± 0.045"}, {"variant": "K49H", "abundance fitness": "-0.462 ± 0.23"}, {"variant": "K49E", "abundance fitness": "-0.235 ± 0.054"}, {"variant": "K49P", "abundance fitness": "-0.766 ± 0.2"}, {"variant": "W45K", "abundance fitness": "-1.09 ± 0.14"}, {"variant": "W45T", "abundance fitness": "-0.986 ± 0.19"}, {"variant": "W45V", "abundance fitness": "-0.866 ± 0.089"}, {"variant": "W45F", "abundance fitness": "-0.747 ± 0.2"}, {"variant": "W45R", "abundance fitness": "-0.953 ± 0.16"}, {"variant": "W45L", "abundance fitness": "-0.815 ± 0.087"}, {"variant": "W45S", "abundance fitness": "-0.933 ± 0.18"}, {"variant": "W45A", "abundance fitness": "-0.691 ± 0.06"}, {"variant": "W45Y", "abundance fitness": "-0.318 ± 0.1"}, {"variant": "W45E", "abundance fitness": "-0.571 ± 0.047"}, {"variant": "W45I", "abundance fitness": "-0.65 ± 0.074"}, {"variant": "W45G", "abundance fitness": "-0.982 ± 0.12"}, {"variant": "W45C", "abundance fitness": "-0.81 ± 0.13"}, {"variant": "W45Q", "abundance fitness": "-0.914 ± 0.094"}, {"variant": "R46C", "abundance fitness": "-0.133 ± 0.076"}, {"variant": "R46W", "abundance fitness": "-0.106 ± 0.039"}, {"variant": "R46V", "abundance fitness": "0.005 ± 0.039"}]}]}
